Experimental data taken from patent US11340233B2, “Universal method to capture and analyze ADCs for characterization of drug distribution and the drug-to-antibody ratio in biological samples” (priority 2016, dated 2022).

How the values were obtained:
[1] = In vitro stability in cynomolgus monkey serum by total antibody and ADC ELISAs; type: in vitro ADME, Cynomolgus (Macaca fascicularis); settings: 37° C., ELISA
Procedure: (§1) ADCs were spiked in sterile mouse, rat or cynomolgus serum at a concentration of 100 μg/ml. Aliquots of 100 μl were incubated at +37° C. in Protein LoBind Tube (Eppendorf, Montesson, France). At specific times (day 1, day 4, day 7 and day 11) samples were removed from the oven and stored at −20° C. until sample processing and analysis.
Four different Ligand Binding Assay (LBAs) systems were used to determine Total Ab or ADC concentrations for ADC1 and ADC2[19]. More precisely, an antigen-specific assay was used for ADC1 and a universal method for ADC2. For the ADC quantification, specific anti-drugs were used relevant to the payload of the ADC.
Briefly, standard microtiter plates (MSD, Gaithersburg, USA) were coated at a concentration of 2 μg/ml Goat anti Human IgG, Monkey adsorbed antibody (SouthernBiotech) for Total Ab or of 3 μg/ml mouse monoclonal antibody raised against the payloads (Epitope Diagnostic Inc.) for ADC assays in PBS. After an overnight incubation at 4° C., plates were treated with blocking buffer (3% MSD Blocker A (MSD, Gaithersburg, USA)) for 1 h at 37° C. In parallel, the standard curves (1000 ng/ml-0.488 ng/ml) using reference immunoconjugates (ADC1 or ADC2) were prepared in assay buffer (1% MSD Blocker in TBS+0.02% Tween 20). Serum samples were diluted to 1:1000 or 1:5000 in a separate 2-ml deep 96-well polypropylene plate in MSD assay buffer. Standards and samples were then loaded onto the assay plate and incubated for 1 h at 37° C. After washing with 1×PBS, the detection step was done using a 2.5 μg/ml solution of the biotinylated antigen for the ADC1 (in house preparation) or a goat anti-human Ig Kappa sulfo-tag solution (in house preparation) diluted to 1 μg/ml in assay buffer for ADC2. After a 30-min incubation at 37° C., and a washing step, the detection was allowed by adding 150 μl of a 2×MSD-read T buffer containing surfactant (MSD, Gaithersburg, USA) just before reading using MSD Sector Imager.
The amount of total antibody and ADC, in serum samples was evaluated in parallel by a quantitative sandwich ELISA. […]

[2] = In vitro ADC stability in cynomolgus monkey serum, immunoprecipitation, reduction and LC-MS; type: in vitro ADME, Cynomolgus (Macaca fascicularis); settings: spiked 100 μg/mL, 37° C.
Procedure: as §1
ADCs were immunoprecipitated from sera using the following protocol. Briefly, 100 μl M-280 Streptavidin magnetics beads suspension were washed three times with HBS-EP buffer (0.01 M HEPES pH 7.4, 0.15 M NaCl, 3 mM EDTA, 0.005% v/v Surfactant P20) and incubated for 30 min at RT with the CaptureSelect™ Human IgG-Fc PK Biotin conjugate. Serum samples from stability studies were then added to the beads and incubated for 2 h at RT. After washing steps with HBS-EP buffer and HBS buffer (10 mM HEPES, 150 mM NaCl, 3 mM EDTA pH 7.6), the ADC was eluted with 0.4% TFA in water. After freeze drying, the samples were reconstituted and incubated with 34 mM DTT in denaturing buffer (6 M Guanidine, 0.1 M Tris, 2 mM EDTA pH 8.0) for 45 min at 56° C.
Acetic acid was then added to quench the reaction and samples were analysed by LC-MS.
Reverse phase separation was performed on an ultra-high performance liquid chromatography (UHPLC) system (Acquity UPLC H-Class Bio system, Waters) coupled to a Synapt G2si mass spectrometer, instrument control was performed using MassLynx® software (Waters).
The reduced samples were directly injected on a PLRP-S column (2.1×150 mm 8 μm, 1000 Å, Agilent) heated at 80° C. with a flow rate of 0.5 ml/min. Elution was performed with water as eluent A and acetonitrile as eluent B, both containing 0.05% TFA. The following elution gradient was applied, B was raised from 30% to 45% in 13 min and then from 45% to 95% in 2 min. The column was washed using 95% B and equilibrated using 30% B for 10 min. The autosampler temperature was set at 10° C. […]
Data were analysed using Biopharmalynx™ (Waters) software. […]

## Brentuximab vedotin [ADC2]
[1]; 11 days
  ADC level normalized against the total Ab concentration at each time point: decreased mainly during the four first days
[1]; over the 11-day period
  ADC concentration: decreased during this period
  total Ab level: ~100 µg/mL
[2]; day 0
  average DAR: 4.5
[2]; day 4
  average DAR: 2.0
[2]; days 4 to 11
  average DAR: stable
